Where “and” joins values, the source holds several entries; their conditions need not be identical. Equal values may be shown once.
Experiments:
[1] = target: HIV-1 16055 envelope (HIV-1); experiment: capture ELISA, plate 1, mAb 2.5 ug/ml
[2] = target: HIV-1 JRCSF envelope (HIV-1) (UniProt P20871); experiment: capture ELISA, plate 1, mAb 2.5 ug/ml
[3] = target: HIV-1 envelope clone BF-002.c08 (multiclade gp160 clone panel) (HIV-1); experiment: capture ELISA, plate 1, mAb 2.5 ug/ml
[4] = target: HIV-1 envelope clone F1-002.c11 (multiclade gp160 clone panel) (HIV-1); experiment: capture ELISA, plate 1, mAb 2.5 ug/ml
[5] = target: HIV-1 envelope clone G-011.c02 (multiclade gp160 clone panel) (HIV-1); experiment: capture ELISA, plate 1, mAb 2.5 ug/ml
[6] = target: HIV-1 envelope of gp160 clone AG-010.c14 (HIV-1); experiment: capture ELISA, plate 1, mAb 2.5 ug/ml
[7] = target: HIV-1 envelope of gp160 clone B-Acute-009-c08 (HIV-1); experiment: capture ELISA, plate 1, mAb 2.5 ug/ml
[8] = target: HIV-1 envelope of gp160 clone B-Acute-010.c08 (HIV-1); experiment: capture ELISA, plate 1, mAb 2.5 ug/ml
[9] = target: HIV-1 envelope of gp160 clone B-Chronic-014.c02 (HIV-1); experiment: capture ELISA, plate 1, mAb 2.5 ug/ml
[10] = target: HIV-1 16055 envelope (HIV-1); experiment: capture ELISA, plate 2, mAb 2.5 ug/ml
[11] = target: HIV-1 JRCSF envelope (HIV-1) (UniProt P20871); experiment: capture ELISA, plate 2, mAb 2.5 ug/ml
[12] = target: HIV-1 envelope clone BF-002.c05 (multiclade gp160 clone panel) (HIV-1); experiment: capture ELISA, plate 2, mAb 2.5 ug/ml
[13] = target: HIV-1 envelope clone BF-002.c08 (multiclade gp160 clone panel) (HIV-1); experiment: capture ELISA, plate 2, mAb 2.5 ug/ml
[14] = target: HIV-1 envelope clone F1-002.c11 (multiclade gp160 clone panel) (HIV-1); experiment: capture ELISA, plate 2, mAb 2.5 ug/ml
[15] = target: HIV-1 envelope clone F1-002.c16 (multiclade gp160 clone panel) (HIV-1); experiment: capture ELISA, plate 2, mAb 2.5 ug/ml
[16] = target: HIV-1 envelope clone G-011.c05 (multiclade gp160 clone panel) (HIV-1); experiment: capture ELISA, plate 2, mAb 2.5 ug/ml
[17] = target: HIV-1 envelope of gp160 clone AG-010.c11 (HIV-1); experiment: capture ELISA, plate 2, mAb 2.5 ug/ml
[18] = target: HIV-1 envelope of gp160 clone AG-010.c14 (HIV-1); experiment: capture ELISA, plate 2, mAb 2.5 ug/ml
[19] = target: HIV-1 envelope of gp160 clone B-Acute-008.c11 (HIV-1); experiment: capture ELISA, plate 2, mAb 2.5 ug/ml
[20] = target: HIV-1 envelope of gp160 clone B-Acute-009-c08 (HIV-1); experiment: capture ELISA, plate 2, mAb 2.5 ug/ml
[21] = target: HIV-1 envelope of gp160 clone B-Chronic-014.c02 (HIV-1); experiment: capture ELISA, plate 2, mAb 2.5 ug/ml
[22] = target: HIV-1 16055 envelope (HIV-1); experiment: capture ELISA, plate 2, mAb 7.5 ug/ml
[23] = target: HIV-1 JRCSF envelope (HIV-1) (UniProt P20871); experiment: capture ELISA, plate 2, mAb 7.5 ug/ml
[24] = target: HIV-1 JRFL envelope (HIV-1); experiment: capture ELISA, plate 2, mAb 7.5 ug/ml
[25] = target: HIV-1 envelope clone BF-002.c05 (multiclade gp160 clone panel) (HIV-1); experiment: capture ELISA, plate 2, mAb 7.5 ug/ml
[26] = target: HIV-1 envelope clone BF-002.c08 (multiclade gp160 clone panel) (HIV-1); experiment: capture ELISA, plate 2, mAb 7.5 ug/ml
[27] = target: HIV-1 envelope clone F1-002.c11 (multiclade gp160 clone panel) (HIV-1); experiment: capture ELISA, plate 2, mAb 7.5 ug/ml
[28] = target: HIV-1 envelope clone F1-002.c16 (multiclade gp160 clone panel) (HIV-1); experiment: capture ELISA, plate 2, mAb 7.5 ug/ml
[29] = target: HIV-1 envelope clone G-011.c02 (multiclade gp160 clone panel) (HIV-1); experiment: capture ELISA, plate 2, mAb 7.5 ug/ml
[30] = target: HIV-1 envelope clone G-011.c05 (multiclade gp160 clone panel) (HIV-1); experiment: capture ELISA, plate 2, mAb 7.5 ug/ml
[31] = target: HIV-1 envelope of gp160 clone AG-010.c11 (HIV-1); experiment: capture ELISA, plate 2, mAb 7.5 ug/ml
[32] = target: HIV-1 envelope of gp160 clone AG-010.c14 (HIV-1); experiment: capture ELISA, plate 2, mAb 7.5 ug/ml
[33] = target: HIV-1 envelope of gp160 clone B-Acute-008.c11 (HIV-1); experiment: capture ELISA, plate 2, mAb 7.5 ug/ml
[34] = target: HIV-1 envelope of gp160 clone B-Acute-009-c08 (HIV-1); experiment: capture ELISA, plate 2, mAb 7.5 ug/ml
[35] = target: HIV-1 envelope of gp160 clone B-Acute-010.c08 (HIV-1); experiment: capture ELISA, plate 2, mAb 7.5 ug/ml
[36] = target: HIV-1 envelope of gp160 clone B-Acute-010.c09 (HIV-1); experiment: capture ELISA, plate 2, mAb 7.5 ug/ml
[37] = target: HIV-1 envelope of gp160 clone B-Chronic-014.c02 (HIV-1); experiment: capture ELISA, plate 2, mAb 7.5 ug/ml

## PGT151 (antibody)
[1]
  ELISA OD: 0.091 OD and 0.061 OD
[2]
  ELISA OD: 0.087 OD and 0.063 OD
[3]
  ELISA OD: 0.062 OD
[4]
  ELISA OD: 0.063 OD
[5]
  ELISA OD: 0.067 OD
[6]
  ELISA OD: 0.164 OD
[7]
  ELISA OD: 0.076 OD
[8]
  ELISA OD: 0.243 OD
[9]
  ELISA OD: 0.206 OD
[10]
  ELISA OD: 0.082 OD and 0.076 OD
[11]
  ELISA OD: 0.078 OD and 0.068 OD
[12]
  ELISA OD: 0.174 OD
[13]
  ELISA OD: 0.067 OD
[14]
  ELISA OD: 0.115 OD
[15]
  ELISA OD: 0.114 OD
[16]
  ELISA OD: 0.086 OD
[17]
  ELISA OD: 0.08 OD
[18]
  ELISA OD: 0.149 OD
[19]
  ELISA OD: 0.266 OD
[20]
  ELISA OD: 0.128 OD
[21]
  ELISA OD: 0.203 OD
[22]
  ELISA OD: 0.119 OD and 0.118 OD
[23]
  ELISA OD: 0.098 OD and 0.121 OD
[24]
  ELISA OD: 0.138 OD and 0.149 OD
[25]
  ELISA OD: 0.253 OD
[26]
  ELISA OD: 0.102 OD
[27]
  ELISA OD: 0.135 OD
[28]
  ELISA OD: 0.138 OD
[29]
  ELISA OD: 0.197 OD
[30]
  ELISA OD: 0.125 OD
[31]
  ELISA OD: 0.116 OD
[32]
  ELISA OD: 0.191 OD
[33]
  ELISA OD: 0.209 OD
[34]
  ELISA OD: 0.191 OD
[35]
  ELISA OD: 0.21 OD
[36]
  ELISA OD: 0.121 OD
[37]
  ELISA OD: 0.462 OD

Source: US20150065381A1
